What was measured:
TtSlyDcys-Her3 = biological target: T1, TtSlyDcys-Her3; assay: SPR Biacore T200, antibody captured, 25 C
T1 chain: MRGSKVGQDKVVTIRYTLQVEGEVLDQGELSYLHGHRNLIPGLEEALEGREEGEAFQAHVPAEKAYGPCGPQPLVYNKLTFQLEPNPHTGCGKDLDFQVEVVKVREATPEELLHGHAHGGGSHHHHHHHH
Experimental: (§1) A Biacore T200 instrument (GE Healthcare) was mounted with a CMS series sensor. The sensor was normalized in HBS-ET buffer (10 mM HEPES pH 7.4, 150 mM NaCl, 3 mM EDTA, 0.05% w/v Tween 20) according to the manufacturer's instructions. The sample buffer was the system buffer supplemented with 1 mg/ml CMD (Carboxymethyldextran, Sigma #86524). The system operated at 25° C. 6500 RU RAM-Fcγ (relative units of Fcγ-fragment RamIgG, GE Healthcare) were immobilized according to the manufacturer's instructions using amine coupling EDC/NHS chemistry on all four flow cells. The sensor was deactivated using 1M ethanolamine. […] Concentration dependent kinetics were measured. […] All analytes were injected for 5 min association time and 10 min dissociation time at 100 μl/min flow rate. The sensor capture system was regenerated by a 3 min injection at 10 μl/min of 10 mM glycine pH 1.7. Where possible kinetic data was evaluated using the Biacore T200 evaluation software.

HER4 ECD-HRG complex = biological target: T2, HER4 ECD-HRG complex (human, UniProt Q15303 26-651); assay: SPR Biacore T200, antibody captured, 25 C
T2 construct: HER4 ECD preincubated with a 5-fold molar excess of Heregulin
T2 sequence 1: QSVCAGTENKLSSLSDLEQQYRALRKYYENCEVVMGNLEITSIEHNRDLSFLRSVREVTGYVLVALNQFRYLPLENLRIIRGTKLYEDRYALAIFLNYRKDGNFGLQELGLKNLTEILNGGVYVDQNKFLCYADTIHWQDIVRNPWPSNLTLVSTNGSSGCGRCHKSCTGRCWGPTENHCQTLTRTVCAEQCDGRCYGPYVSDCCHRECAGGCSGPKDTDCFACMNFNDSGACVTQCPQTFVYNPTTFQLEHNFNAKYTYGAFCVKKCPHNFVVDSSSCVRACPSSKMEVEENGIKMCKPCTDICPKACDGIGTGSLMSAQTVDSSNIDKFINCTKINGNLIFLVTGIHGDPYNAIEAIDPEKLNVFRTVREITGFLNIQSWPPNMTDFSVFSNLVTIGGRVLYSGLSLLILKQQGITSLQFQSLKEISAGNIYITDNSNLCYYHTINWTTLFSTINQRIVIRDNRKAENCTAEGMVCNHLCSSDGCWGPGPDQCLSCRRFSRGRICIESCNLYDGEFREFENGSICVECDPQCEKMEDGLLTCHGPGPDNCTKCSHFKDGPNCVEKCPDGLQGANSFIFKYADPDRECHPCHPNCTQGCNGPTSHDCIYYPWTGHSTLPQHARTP
T2 sequence 2: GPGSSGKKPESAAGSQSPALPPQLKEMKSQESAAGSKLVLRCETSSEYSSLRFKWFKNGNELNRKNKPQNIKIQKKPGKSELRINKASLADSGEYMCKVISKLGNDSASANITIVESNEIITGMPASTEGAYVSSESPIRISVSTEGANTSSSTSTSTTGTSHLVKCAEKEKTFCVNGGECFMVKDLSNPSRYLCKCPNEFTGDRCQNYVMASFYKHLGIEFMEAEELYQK
Experimental: as §1

TtSlyDcas = biological target: T3, TtSlyDcas; assay: SPR Biacore T200, antibody captured, 25 C
T3 construct: scaffold without hairpin insert, negative control
T3 chain: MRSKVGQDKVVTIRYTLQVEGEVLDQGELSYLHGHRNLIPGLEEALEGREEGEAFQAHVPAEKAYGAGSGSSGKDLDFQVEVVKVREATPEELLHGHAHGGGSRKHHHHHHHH
Experimental: as §1

TtSlyD-FKBP-Her3 [1] = biological target: T4, TtSlyD-FKBP-Her3; assay: SPR Biacore 3000, antibody captured, 25 C
T4 construct: N-terminal Met present or not; also called thermo SlyD-Her3; ttSlyD-Her3
T4 chain: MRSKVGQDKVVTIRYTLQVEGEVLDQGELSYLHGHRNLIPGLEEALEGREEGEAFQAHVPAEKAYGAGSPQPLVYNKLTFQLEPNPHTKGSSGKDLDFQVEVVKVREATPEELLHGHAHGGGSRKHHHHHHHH
Experimental: (§2) A CMS series sensor was mounted into the system and was normalized in HBS-ET buffer (10 mM HEPES pH 7.4, 150 mM NaCl, 3 mM EDTA, 0.005% w/v Tween 20) according to the manufacturer's instructions. The sample buffer was the system buffer supplemented with 1 mg/ml CMD (Carboxymethyldextran). The system operated at 25° C. 10000 RU RAM-Fcγ (relative units of Fcγ-fragment Rabbit Anti-Mouse IgG/Jackson Laboratories) were immobilized according to the manufacturer's instructions using EDC/NHS chemistry on all flow cells. The sensor was deactivated using 1M ethanolamine. Analytes in solution were injected at 100 μl/min at different concentration steps of 0 nM, 1.1 nM, 3.7 nM, 11.1 nM, 33.1 nM and 90 nM for 2 min. The dissociation was monitored for 5 min. Acidic regeneration of the sensor surface was achieved using three consecutive injections of 10 mM Glycine pH 1.7 at 30 μl/min for 60 sec. Kinetic data were evaluated according to a Langmuir fit.

[2] = biological target: T5, human HER3 Extracellular Domain (ECD) (human, UniProt P21860 20-643); assay: SPR Biacore 3000, antibody captured, 25 C
T5 construct: human recombinant, 68 kDa; 'closed' conformation without ligand; also called Her3 ECD; Her-3 ECD
Experimental: as §2

HER3 ECD-HRG complex = biological target: T6, HER3 ECD-HRG complex (human, UniProt P21860 20-643); assay: SPR Biacore 3000, antibody captured, 25 C
T6 construct: HER3 ECD preincubated with a 3- to 6-fold molar excess of Heregulin ('open' conformation); biotinylated Her3-ECD in the ribosome display; also called HER3-ECD/HRG1β
Experimental: as §2

TtSlyD-FKBP-Her3 [3] = biological target: T4, TtSlyD-FKBP-Her3; assay: SPR Biacore 3000, antibody captured, 25 C

B1: anti-HER3/HER4 antibody M-05-74 (antibody, V domains shown)
VH: QVQLQQSGAELAKPGASVKMSCKTSGYTLTDYWIHWVKQRPGQGLEWIGYINPYTGYTESNQKFKDKATLTADKSSNTAYIQLSSLTSEDSAVYYCARPYYYGDYWGQGTTLTVSS
VL: QIVLTQSPAIMSASPGERVTITCSASSSVSYMHWFQQKPGTSPKLLIYSTSNLASGVPARFSGSGSGTSYSLTISRMEAEDAATYYCQQRSSYPFTFGSGTKLEIK
notes: murine monoclonal IgG from hybridoma (supernatant or purified), bivalent; also called M-074; M-5-74
- Kd (TtSlyDcys-Her3): 7.8 nM
- MR (Molar Ratio) (TtSlyDcys-Her3): 1.9
- koff (TtSlyDcys-Her3): 0.00024 s⁻¹
- kon (TtSlyDcys-Her3): 30000 M⁻¹ s⁻¹
- Kd (HER4 ECD-HRG complex): 8.1 nM
- MR (Molar Ratio) (HER4 ECD-HRG complex): 0.8
- koff (HER4 ECD-HRG complex): 0.00081 s⁻¹
- kon (HER4 ECD-HRG complex): 99000 M⁻¹ s⁻¹
- MR (Molar Ratio) (TtSlyDcas): 0
- binding result (TtSlyDcas): no binding (tested: up to 90 nM)
- BL (Binding Late) (TtSlyD-FKBP-Her3 [1]): 68.1 RU
- MR (Molar Ratio) (TtSlyD-FKBP-Her3 [1]): 1.5
- kon (TtSlyD-FKBP-Her3 [1]): 87500 M⁻¹ s⁻¹
- t/2-diss (TtSlyD-FKBP-Her3 [1]): 4.9 min
- BL (Binding Late) [2]: 36 RU
- MR (Molar Ratio) [2]: 0.2
- kon [2]: 20400 M⁻¹ s⁻¹
- t/2-diss [2]: 28 min
- BL (Binding Late) (HER3 ECD-HRG complex): 199 RU
- MR (Molar Ratio) (HER3 ECD-HRG complex): 0.8
- kon (HER3 ECD-HRG complex): 66000 M⁻¹ s⁻¹
- t/2-diss (HER3 ECD-HRG complex): 18 min
- Kd (TtSlyD-FKBP-Her3 [3]): 27 nM
